Starred links: 1 amine or outer side, 2 acyl side, 3 side chain; linkers in the order of their positions; H or OH if unused. Positions of bridges follow the written chain, without caps; N, C: chain ends. *: point of attachment. C20 diacid = O=C(O)CCCCCCCCCCCCCCCCCCC(=O)*; 19‑carboxyheptadecanoyl = not defined here; γGlu = O=C(O)[C@H](CCC(=O)[*:2])N[*:1]; AEEA = NCCOCCOCC(=O)O
B1: N-alpha-[(S)-4-Carboxy-4-(19-carboxynonadecanoylamino)butyryl]-[Glu14,His17,His32]-pramlintide (peptide)
peptide: {C20 diacid-γGlu}-KCNTATCATQRLAEFLHHSSNNFGPILPPTNHGSNTY-NH2
modifications: disulfide 2-7
SMILES: CC[C@H](C)[C@H](NC(=O)[C@@H]1CCCN1C(=O)CNC(=O)[C@H](Cc1ccccc1)NC(=O)[C@H](CC(N)=O)NC(=O)[C@H](CC(N)=O)NC(=O)[C@H](CO)NC(=O)[C@H](CO)NC(=O)[C@H](Cc1c[nH]cn1)NC(=O)[C@H](Cc1c[nH]cn1)NC(=O)[C@H](CC(C)C)NC(=O)[C@H](Cc1ccccc1)NC(=O)[C@H](CCC(=O)O)NC(=O)[C@H](C)NC(=O)[C@H](CC(C)C)NC(=O)[C@H](CCCNC(=N)N)NC(=O)[C@H](CCC(N)=O)NC(=O)[C@@H](NC(=O)[C@H](C)NC(=O)[C@@H]1CSSC[C@H](NC(=O)[C@H](CCCCN)NC(=O)CC[C@H](NC(=O)CCCCCCCCCCCCCCCCCCC(=O)O)C(=O)O)C(=O)N[C@@H](CC(N)=O)C(=O)N[C@@H]([C@@H](C)O)C(=O)N[C@@H](C)C(=O)N[C@@H]([C@@H](C)O)C(=O)N1)[C@@H](C)O)C(=O)N[C@@H](CC(C)C)C(=O)N1CCC[C@H]1C(=O)N1CCC[C@H]1C(=O)N[C@H](C(=O)N[C@@H](CC(N)=O)C(=O)N[C@@H](Cc1c[nH]cn1)C(=O)NCC(=O)N[C@@H](CO)C(=O)N[C@@H](CC(N)=O)C(=O)N[C@H](C(=O)N[C@@H](Cc1ccc(O)cc1)C(N)=O)[C@@H](C)O)[C@@H](C)O
B2: N-alpha-[(S)-4-Carboxy-4-(19-carboxynonadecanoylamino)butyryl]-[Glu14,His17,Lys35]-pramlintide (peptide)
peptide: {C20 diacid-γGlu}-KCNTATCATQRLAEFLHHSSNNFGPILPPTNVGSKTY-NH2
modifications: disulfide 2-7; not fully specified; printed as N-alpha-[(S)-4-Carboxy-4-(19-carboxynonadecanoylamino)butyryl]-[Glu14,His17,Lys35]-pramlintide
B3: N-alpha-[(S)-4-Carboxy-4-(19-carboxynonadecanoylamino)butyryl]-[Glu14,His17,His34]-pramlintide (peptide)
peptide: {C20 diacid-γGlu}-KCNTATCATQRLAEFLHHSSNNFGPILPPTNVGHNTY-NH2
modifications: disulfide 2-7
SMILES: CC[C@H](C)[C@H](NC(=O)[C@@H]1CCCN1C(=O)CNC(=O)[C@H](Cc1ccccc1)NC(=O)[C@H](CC(N)=O)NC(=O)[C@H](CC(N)=O)NC(=O)[C@H](CO)NC(=O)[C@H](CO)NC(=O)[C@H](Cc1c[nH]cn1)NC(=O)[C@H](Cc1c[nH]cn1)NC(=O)[C@H](CC(C)C)NC(=O)[C@H](Cc1ccccc1)NC(=O)[C@H](CCC(=O)O)NC(=O)[C@H](C)NC(=O)[C@H](CC(C)C)NC(=O)[C@H](CCCNC(=N)N)NC(=O)[C@H](CCC(N)=O)NC(=O)[C@@H](NC(=O)[C@H](C)NC(=O)[C@@H]1CSSC[C@H](NC(=O)[C@H](CCCCN)NC(=O)CC[C@H](NC(=O)CCCCCCCCCCCCCCCCCCC(=O)O)C(=O)O)C(=O)N[C@@H](CC(N)=O)C(=O)N[C@@H]([C@@H](C)O)C(=O)N[C@@H](C)C(=O)N[C@@H]([C@@H](C)O)C(=O)N1)[C@@H](C)O)C(=O)N[C@@H](CC(C)C)C(=O)N1CCC[C@H]1C(=O)N1CCC[C@H]1C(=O)N[C@H](C(=O)N[C@@H](CC(N)=O)C(=O)N[C@H](C(=O)NCC(=O)N[C@@H](Cc1c[nH]cn1)C(=O)N[C@@H](CC(N)=O)C(=O)N[C@H](C(=O)N[C@@H](Cc1ccc(O)cc1)C(N)=O)[C@@H](C)O)C(C)C)[C@@H](C)O
B4: N-alpha-[(S)-4-Carboxy-4-(19-carboxynonadecanoylamino)butyryl]-[Glu14,His17,Arg35]-pramlintide (peptide)
peptide: {C20 diacid-γGlu}-KCNTATCATQRLAEFLHHSSNNFGPILPPTNVGSRTY-NH2
modifications: disulfide 2-7
SMILES: CC[C@H](C)[C@H](NC(=O)[C@@H]1CCCN1C(=O)CNC(=O)[C@H](Cc1ccccc1)NC(=O)[C@H](CC(N)=O)NC(=O)[C@H](CC(N)=O)NC(=O)[C@H](CO)NC(=O)[C@H](CO)NC(=O)[C@H](Cc1c[nH]cn1)NC(=O)[C@H](Cc1c[nH]cn1)NC(=O)[C@H](CC(C)C)NC(=O)[C@H](Cc1ccccc1)NC(=O)[C@H](CCC(=O)O)NC(=O)[C@H](C)NC(=O)[C@H](CC(C)C)NC(=O)[C@H](CCCNC(=N)N)NC(=O)[C@H](CCC(N)=O)NC(=O)[C@@H](NC(=O)[C@H](C)NC(=O)[C@@H]1CSSC[C@H](NC(=O)[C@H](CCCCN)NC(=O)CC[C@H](NC(=O)CCCCCCCCCCCCCCCCCCC(=O)O)C(=O)O)C(=O)N[C@@H](CC(N)=O)C(=O)N[C@@H]([C@@H](C)O)C(=O)N[C@@H](C)C(=O)N[C@@H]([C@@H](C)O)C(=O)N1)[C@@H](C)O)C(=O)N[C@@H](CC(C)C)C(=O)N1CCC[C@H]1C(=O)N1CCC[C@H]1C(=O)N[C@H](C(=O)N[C@@H](CC(N)=O)C(=O)N[C@H](C(=O)NCC(=O)N[C@@H](CO)C(=O)N[C@@H](CCCNC(=N)N)C(=O)N[C@H](C(=O)N[C@@H](Cc1ccc(O)cc1)C(N)=O)[C@@H](C)O)C(C)C)[C@@H](C)O
B5: N-alpha-[(S)-4-Carboxy-4-(19-carboxynonadecanoylamino)butyryl]-[Glu14,His17,Gln21,His35)-pramlintide (peptide)
peptide: {C20 diacid-γGlu}-KCNTATCATQRLAEFLHHSSQNFGPILPPTNVGSHTY-NH2
modifications: disulfide 2-7
SMILES: CC[C@H](C)[C@H](NC(=O)[C@@H]1CCCN1C(=O)CNC(=O)[C@H](Cc1ccccc1)NC(=O)[C@H](CC(N)=O)NC(=O)[C@H](CCC(N)=O)NC(=O)[C@H](CO)NC(=O)[C@H](CO)NC(=O)[C@H](Cc1c[nH]cn1)NC(=O)[C@H](Cc1c[nH]cn1)NC(=O)[C@H](CC(C)C)NC(=O)[C@H](Cc1ccccc1)NC(=O)[C@H](CCC(=O)O)NC(=O)[C@H](C)NC(=O)[C@H](CC(C)C)NC(=O)[C@H](CCCNC(=N)N)NC(=O)[C@H](CCC(N)=O)NC(=O)[C@@H](NC(=O)[C@H](C)NC(=O)[C@@H]1CSSC[C@H](NC(=O)[C@H](CCCCN)NC(=O)CC[C@H](NC(=O)CCCCCCCCCCCCCCCCCCC(=O)O)C(=O)O)C(=O)N[C@@H](CC(N)=O)C(=O)N[C@@H]([C@@H](C)O)C(=O)N[C@@H](C)C(=O)N[C@@H]([C@@H](C)O)C(=O)N1)[C@@H](C)O)C(=O)N[C@@H](CC(C)C)C(=O)N1CCC[C@H]1C(=O)N1CCC[C@H]1C(=O)N[C@H](C(=O)N[C@@H](CC(N)=O)C(=O)N[C@H](C(=O)NCC(=O)N[C@@H](CO)C(=O)N[C@@H](Cc1c[nH]cn1)C(=O)N[C@H](C(=O)N[C@@H](Cc1ccc(O)cc1)C(N)=O)[C@@H](C)O)C(C)C)[C@@H](C)O
B6: N-alpha-[(S)-4-Carboxy-4-(19-carboxynonadecanoylamino)butyryl]-[Glu14,His17,His36]-pramlintide (peptide)
peptide: {C20 diacid-γGlu}-KCNTATCATQRLAEFLHHSSNNFGPILPPTNVGSNHY-NH2
modifications: disulfide 2-7; not fully specified; printed as N-alpha-[(S)-4-Carboxy-4-(19-carboxynonadecanoylamino)butyryl]-[Glu14,His17,His36]-pramlintide
B7: N-alpha-[2-(2-{2-[2-(2-{2-[(S)-4-Carboxy-4-(19-carboxyheptadecanoylamino)butyrylamino]ethoxy}ethoxy)acetylamino]ethoxy}ethoxy)acetyl]-[Glu14,His17,Ser21,His35]- … (peptide)
peptide: {19‑carboxyheptadecanoyl-γGlu-AEEA-AEEA}-KCNTATCATQRLAEFLHHSSSNFGPILPPTNVGSHTY-NH2
modifications: disulfide 2-7; reading uncertain; also: printed as N-alpha-[2-(2-{2-[2-(2-{2-[(S)-4-Carboxy-4-(19-carboxyheptadecanoylamino)butyrylamino]ethoxy}ethoxy)acetylamino]ethoxy}ethoxy)acetyl]-[Glu14,His17,Ser21,His35]-pramlintide

Assays:
[1] = molecular target: T1, human amylin 3(a) receptor (human calcitonin receptor + RAMP-3) (human, UniProt P30988 25-474; O60896 24-148); assay: cell-based or functional assay
T1 sequence (looked up) 1: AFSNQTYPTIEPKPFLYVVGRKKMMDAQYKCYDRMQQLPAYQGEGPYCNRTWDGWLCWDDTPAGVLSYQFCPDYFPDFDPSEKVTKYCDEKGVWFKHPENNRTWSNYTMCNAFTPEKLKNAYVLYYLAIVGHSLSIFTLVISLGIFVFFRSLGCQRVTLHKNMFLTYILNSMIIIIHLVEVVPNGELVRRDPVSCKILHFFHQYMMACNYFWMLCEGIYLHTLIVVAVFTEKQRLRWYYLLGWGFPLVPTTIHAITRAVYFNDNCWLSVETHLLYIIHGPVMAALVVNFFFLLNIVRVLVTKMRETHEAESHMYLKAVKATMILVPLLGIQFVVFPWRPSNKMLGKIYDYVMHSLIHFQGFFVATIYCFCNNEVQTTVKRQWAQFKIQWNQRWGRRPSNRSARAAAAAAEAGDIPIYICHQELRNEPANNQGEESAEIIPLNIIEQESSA
T1 sequence (looked up) 2: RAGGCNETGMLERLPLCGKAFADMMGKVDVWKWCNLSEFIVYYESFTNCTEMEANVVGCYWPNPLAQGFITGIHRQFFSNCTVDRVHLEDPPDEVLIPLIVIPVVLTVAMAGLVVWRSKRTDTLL

[2] = molecular target: T2, human calcitonin (a) receptor (human, UniProt P30988 25-474); assay: cell-based or functional assay
T2 sequence (looked up): T1 sequence (looked up) 1

Binder | Amylin receptor human EC50 [1] | CTa receptor human EC50 [2]
B1 | 0.487 nM | 0.124 nM
B2 | 0.134 nM | 0.13 nM
B3 | 0.129 nM | 0.115 nM
B4 | 0.098 nM | 0.104 nM
B5 | 0.156 nM | 0.169 nM
B6 | 0.382 nM | 0.113 nM
B7 | 0.434 nM | 0.277 nM

From patent US20130005646A1 (Novo Nordisk, published 2013)
